Results from patent US20240390531A1 (IMAGINAB, published 2024).
Positions count from the first letter of the chain named. Values belong to the binder of their own block, whether it stands above or below them.

Columns and labels:
[1] = biological target: T1, purified human FAP antigen (human, UniProt Q12884 26-760, limits assumed); assay: ELISA, plate coated with purified human FAP antigen (FIG. 56D-56E)
Procedure: (§1) Binding kinetics of the novel antigen binding constructs to a purified human FAP antigen was assessed using ELISA. For this assay, a 96 well ELISA plate was coated with the human-FAP antigen diluted to a concentration of 2 mg/mL in coating buffer (0.05M sodium carbonate-bicarbonate buffer, pH 9.6). 100 μl of this coating solution was added to each well in the plate and incubate at 4° C. overnight. The plate was washed 3 times with 300 μl per well of washing buffer (PBS with 0.05% Tween-20). After the last wash, the plate was blocked by adding to each well 200 μl of blocking buffer (PBS with 1% BSA) warmed to room temperature. The plate was then incubated at room temperature for 1 hour under gentle agitation. After blocking, the plate was washed 3 times with 300 μl per well of washing buffer. Dilution samples for each minibody were created by making 2.5× dilutions from a starting sample at 100 ng/mL, or 250 ng/mL, or 1000 ng/mL or 3000 ng/mL in 100 μL sample buffer (PBS with 1% BSA). The dilution samples were transferred to the assay plate and incubated at room temperature for 1 hour under gentle agitation. The plate was then washed 3 times with 300 μl per well of washing buffer.
(§2) Detection was performed by adding 100 μl of HRP labeled detection secondary antibody at an appropriate dilution and incubating the plate at room temperature for 1 hour under gentle agitation. The plate was then washed 3 times with 300 μl per well of washing buffer. For color development, 100 μl of TMB substrate regent, pre-warmed to room temperature, was added to the plate and incubated in the dark at room temperature for 15 min. The reaction was then stopped by adding 100 μl of 650 nm stop solution to the plate and mixed for 1 min at room temperature under gentle agitation. The plate is recorded by reading OD at 650 nm in a plate reader within 20 min after terminating the reaction.

[2] = biological target: T2, human FAP on cells (human, UniProt Q12884 1-760); assay: flow cytometry on U87-MG glioblastoma cells (FIG. 58B)
T2 construct: whole, on cells; The cell line is named under assay; also called HT1080 human FAP cells; HT1080-hFAP cells
Procedure: As disclosed herein, the binding of constructs to cellular targets was assessed using flow cytometry. Stock of 2.5× serial dilution of minibodies were created starting from a concentration of 100 nM in […] FACS buffer (PBS 2% FBS). Cells were added to a Corning V-bottom polypropylene cell culture plate at 200,000 cells/well. The cells were centrifuged at 100 rpm for 3 minutes and the supernatant discarded. The minibody dilution series were transferred to the plate containing cell pellets and incubated for 1 hr at 4° C. The plate was then washed 3 times with FACS buffer at 200 µl/well, discarding supernatant after each wash by centrifugation at 1000 rpm. 50 µl/well of detection antibody R&D AlexaFluor-647 Goat anti Human (H+L) was added at a 1:100 dilution in FACS buffer and incubated at 4° C. 1 hr. The plate was washed 3 times with FACS buffer at 200 µl/well, discarding supernatant after each wash by centrifuging at 1000 rpm. Cells were then fixed by adding 100 µl of 1% paraformaldehyde in PBS and incubating at room temperature for 15 minutes. 100 µl of PBS were added to each well and the plate was analyzed by flow cytometry using the allophycocyanin fluorescence setting.

[3] = biological target: T1, purified human FAP antigen; assay: ELISA, plate coated with purified human FAP antigen (FIG. 56A-56C)
Procedure: as §1, §2

[4] = biological target: FAP (UniProt Q12884 26-760, limits assumed); assay: binding kinetics, method not stated (FIG. 42A)
[5] = biological target: T1, purified human FAP antigen; assay: ELISA, plate coated with purified human FAP antigen (FIG. 91A)
Procedure: as §1

[6] = biological target: T1, purified human FAP antigen; assay: ELISA, plate coated with purified human FAP antigen (FIG. 91F)
Procedure: as §1

Kd [1]: ~1 nM
B1: IAB16M2-29 (other)
chain: QVQLVQSGAEVKKPGASVKVSCKASGYTFTEYTIHWVRQAPGQRLEWIGGINPNNGIPNYNQKFKGRVTITVDTSASTAYMELSSLRSEDTAVYYCARRRIAYGYDEGHAMDYWGQGTLVTVSSGSTSGGGSGGGSGGGGSSDIVMTQSPDSLAVSLGERATINCKSSQSLLYSRNQKNYLAWYQQKPGQPPKLLIFWASTRESGVPDRFSGSGSGTDFTLTISSLQAEDFAVYYCQQYFSYPLTFGQGTKVEIKEPKSSDKTHTCPPCPPCGGGSSGGGSGGQPREPQVYTLPPSREEMTKNQVSLTCLVKGFYPSDIAVEWESNGQPENNYKTTPPVLDSDGSFFLYSKLTVDKSRWQQGNVFSCSVMHEALHNHYTQKSLSLSPG

Kd [2]: ~0.1 nM | Kd [3]: ~0.1 nM
B2: IAB16M2-13 (other)
chain: B1 chain with A24T, G26R, S215F, F231V
notes: also called Sibrotuzumab minibody

Kd [1]: ~1 nM
B3: IAB16C1-20 (other)
chain: DIVMTQSPDSLAVSLGERATINCKSSQSLLYSRNQKNYLAWYQQKPGQPPKLLIFWASTRESGVPDRFSGSGFGTDFTLTISSLQAEDVAVYYCQQYFSYPLTFGQGTKVEIKSGGGGQVQLVQSGAEVKKPGASVKVSCKTSRYTFTEYTIHWVRQAPGQRLEWIGGINPNNGIPNYNQKFKGRVTITVDTSASTAYMELSSLRSEDTAVYYCARRRIAYGYDEGHAMDYWGQGTLVTVSSGGCPPCPPC

Kd [1]: ~1 nM
B4: IAB16C1-38 (other)
chain: B3 chain with F73S, V89F, F98Y, T142A, R144G

Kd [2]: ~0.1 nM | Kd [4]: 3.34 nM | koff [4]: 0.00257 s⁻¹ | kon [4]: 769000 M⁻¹ s⁻¹ | Kd [3]: ~0.1 nM
B5: IAB16M1-12 (other)
chain: DIVMTQSPDSLAVSLGERATINCKSSQSLLYSRNQKNYLAWYQQKPGQPPKLLIFWASTRESGVPDRFSGSGFGTDFTLTISSLQAEDVAVYYCQQYFSYPLTFGQGTKVEIKGSTSGGGSGGGSGGGGSSQVQLVQSGAEVKKPGASVKVSCKTSRYTFTEYTIHWVRQAPGQRLEWIGGINPNNGIPNYNQKFKGRVTITVDTSASTAYMELSSLRSEDTAVYYCARRRIAYGYDEGHAMDYWGQGTLVTVSSEPKSSDKTHTCPPCPPCGGGSSGGGSGGQPREPQVYTLPPSREEMTKNQVSLTCLVKGFYPSDIAVEWESNGQPENNYKTTPPVLDSDGSFFLYSKLTVDKSRWQQGNVFSCSVMHEALHNHYTQKSLSLSPG
notes: also called Sibrotuzumab minibody; the control

Kd [5]: ~1 nM
B6: 9A2 (other)
chain 1: EVQLQQSGPELVKPGASVKMSCKASGYTFTSYVMHWLKQKPGQGLEWIGYINPHNDGTKYNEKFKGKATLTSDKSSSTAYMELSSLTSEDSAVYYCARWGIYYGYGAWFAYWGQGTLVTVSA
chain 2: DIVMTQSQKFMSTSVGDRVSVTCKASQNVGTYVAWYQQKPGQSPKALIYSASNRYSGVPDRFTGSGSGTDFTLTISNVQSEDLAEYFCQQYNTYPYTFGGGTKLEIK
notes: also called murine 9A2 construct

Kd [5]: ~1 nM
B7: IAB16M1-54 (other)
chain: DIQMTQSPSSLSASVGDRVTITCKASQNVGTYVAWFQQKPGKAPKSLIYSASNRYSGVPSRFSGSGSGTDFTLTISSLQPEDFATYYCQQYNTYPYTFGQGTKLEIKGSTSGGGSGGGSGGGGSSQVQLVQSGAEVKKPGASVKVSCKASGYTFTSYVMHWVRQAPGQGLEWMGYINPHNDGTKYAQKFQGRVTMTRDTSTSTVYMELSSLRSEDTAVYYCARWGIYYGYGAWFAYWGQGTLVTVSSEPKSSDKTHTCPPCPPCGGGSSGGGSGGQPREPQVYTLPPSREEMTKNQVSLTCLVKGFYPSDIAVEWESNGQPENNYKTTPPVLDSDGSFFLYSKLTVDKSRWQQGNVFSCSVMHEALHNHYTQKSLSLSPG

Kd [5]: ~1 nM
B8: IAB16M2-55 (other)
chain: QVQLVQSGAEVKKPGASVKVSCKASGYTFTSYVMHWVRQAPGQGLEWMGYINPHNDGTKYAQKFQGRVTMTRDTSTSTVYMELSSLRSEDTAVYYCARWGIYYGYGAWFAYWGQGTLVTVSSGSTSGGGSGGGSGGGGSSDIQMTQSPSSLSASVGDRVTITCKASQNVGTYVAWFQQKPGKAPKSLIYSASNRYSGVPSRFSGSGSGTDFTLTISSLQPEDFATYYCQQYNTYPYTFGQGTKLEIKEPKSSDKTHTCPPCPPCGGGSSGGGSGGQPREPQVYTLPPSREEMTKNQVSLTCLVKGFYPSDIAVEWESNGQPENNYKTTPPVLDSDGSFFLYSKLTVDKSRWQQGNVFSCSVMHEALHNHYTQKSLSLSPG

Kd [1]: ~1 nM
B9: IAB16C3-21 (other)
chain: DIVMTQSPDSLAVSLGERATINCKSSQSLLYSRNQKNYLAWYQQKPGQPPKLLIFWASTRESGVPDRFSGSGFGTDFTLTISSLQAEDVAVYYCQQYFSYPLTFGQGTKVEIKGGGSGGGGQVQLVQSGAEVKKPGASVKVSCKTSRYTFTEYTIHWVRQAPGQRLEWIGGINPNNGIPNYNQKFKGRVTITVDTSASTAYMELSSLRSEDTAVYYCARRRIAYGYDEGHAMDYWGQGTLVTVSSGGCPPCPPC

Kd [6]: ~1 nM
B10: IAB16M1-49 (other)
chain: DIQMTQSPSSLSASVGDRVTITCKASQDVGIAVAWYQQKPGKAPKLLIYWASTRHTGVPSRFSGSGSGTDFTFTISSLQPEDIATYYCQQYSRYPYTFGQGTKLEIKGSTSGGGSGGGSGGGGSSDVQLVESGGGLVKPGGSLRLSCTVSGFTFSSYTMSWVRQAPGKGLEWVSTISSGGSYTYYADSVKGRFTISRDNAKNSLYLQMNSLRAEDTAVYYCTRDQVGYAMDYWGQGTLVTVSSEPKSSDKTHTCPPCPPCGGGSSGGGSGGQPREPQVYTLPPSREEMTKNQVSLTCLVKGFYPSDIAVEWESNGQPENNYKTTPPVLDSDGSFFLYSKLTVDKSRWQQGNVFSCSVMHEALHNHYTQKSLSLSPG

Kd [2]: ~0.1 nM | Kd [3]: ~0.1 nM
B11: IAB16M2-9 (other)
chain: EVQLLESGGGLVQPGGSLRLSCAASGFTFSSYAMSWVRQAPGKGLEWVSAIIGSGASTYYADSVKGRFTISRDNSKNTLYLQMNSLRAEDTAVYYCAKGWFGGFNYWGQGTLVTVSSGSTSGGGSGGGSGGGGSSEIVLTQSPGTLSLSPGERATLSCRASQSVTSSYLAWYQQKPGQAPRLLINVGSRRATGIPDRFSGSGSGTDFTLTISRLEPEDFAVYYCQQGIMLPPTFGQGTKVEIKEPKSSDKTHTCPPCPPCGGGSSGGGSGGQPREPQVYTLPPSREEMTKNQVSLTCLVKGFYPSDIAVEWESNGQPENNYKTTPPVLDSDGSFFLYSKLTVDKSRWQQGNVFSCSVMHEALHNHYTQKSLSLSPG

Kd [2]: ~0.1 nM | Kd [3]: ~0.1 nM
B12: IAB16M1-8 (other)
chain: EIVLTQSPGTLSLSPGERATLSCRASQSVTSSYLAWYQQKPGQAPRLLINVGSRRATGIPDRFSGSGSGTDFTLTISRLEPEDFAVYYCQQGIMLPPTFGQGTKVEIKGSTSGGGSGGGSGGGGSSEVQLLESGGGLVQPGGSLRLSCAASGFTFSSYAMSWVRQAPGKGLEWVSAIIGSGASTYYADSVKGRFTISRDNSKNTLYLQMNSLRAEDTAVYYCAKGWFGGFNYWGQGTLVTVSSEPKSSDKTHTCPPCPPCGGGSSGGGSGGQPREPQVYTLPPSREEMTKNQVSLTCLVKGFYPSDIAVEWESNGQPENNYKTTPPVLDSDGSFFLYSKLTVDKSRWQQGNVFSCSVMHEALHNHYTQKSLSLSPG
